IC50 and EC50 data for one molecule are collected here from patent publication CN112442122A (SHANGHAI NOVAMAB BIOPHARMACEUTICALS CO LTD, dated 2021).

The target of assay [1] is T1, 人PD-1 (on CHOZn/PD-1 stably transfected cells) (human, UniProt Q15116 25-288).
T1 construct: whole, on cells; also called hPD-1; GS-J2/PD-1
Kind of assay: flow cytometry; competition with 50ug/ml hPD-L1-Biotin on CHOZn/PD-1 cells.

Assay [2] has as its target T1, 人PD-1 (on CHOZn/PD-1 stably transfected …). Kind of assay: flow cytometry; binding to CHOZn/PD-1 cells, anti Human IgG-FITC detection. (A flow cytometer gives signals particle by particle.)

T1 sequence (Q15116 25-288): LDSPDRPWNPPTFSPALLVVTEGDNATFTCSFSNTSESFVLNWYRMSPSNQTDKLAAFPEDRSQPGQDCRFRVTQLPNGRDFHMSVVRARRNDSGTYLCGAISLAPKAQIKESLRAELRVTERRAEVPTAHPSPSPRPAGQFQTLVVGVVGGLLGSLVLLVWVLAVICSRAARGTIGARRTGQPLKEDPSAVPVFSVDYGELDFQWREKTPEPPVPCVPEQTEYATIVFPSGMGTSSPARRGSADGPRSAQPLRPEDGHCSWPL

B1: PD-1Nb-Fc融合蛋白 (Fc fusion)
chain: QVQLQESGGGSVQAGGSLRLSCAASGYTYSSYYMGWFRQAPGKEREGVAAIDRDGRTSYADSVKGRFTISRDNAKNTLYLQMNSLKPEDTAMYTCAAVLVLSGYYSDYGLVPPPFEYNYWGQGTQVTVSS
notes: also called PD-1纳米抗体; not shown: IgG4 Fc supplied by the pFUSE-IgG4 vector (Invivogen)
B1 showed an IC50 in assay [1] of 1.3 µg/mL. Further, the response in assay [2] was half-maximal at 1.06 µg/mL (EC50).

A word on the IC50: it is the midpoint of a concentration-inhibition curve. A lower IC50 goes with greater potency. By EC50 is commonly meant the concentration giving half of the maximal effect.
